Results published in patent US11028127B2, “Peptides capable of reactivating p53 mutants” (Yeda Research and Development Co. Ltd., priority 2013, dated 2021).

Legend:
Mut-p53 (R175H p53) [1] = molecular target: T1, Mut-p53 (R175H p53) (Homo sapiens, UniProt P04637, R175H); test: p53/DNA binding ELISA kit (R&D), binding to p53-RE DNA; type: biochemical; settings: H1299-R175H p53 cell extracts, vs background (NT)
T1 construct: a hot spot full length mutant p53 Mut-p53 R175H (R175H p53); expressed in transfected cells; host or cells: H1299 (p53-null) cells stably overexpressing R175H p53; cell extract
Text: A commercial p53/DNA binding kit (R&D) was used, according to manufacturer instructions. Briefly, 96 well plates were coated with anti-p53 antibody overnight. Cell extracts containing p53 were reacted with an oligonucleotide that contains a p53 consensus binding site, labeled with biotin, in the presence or absence (NT) of test peptides. WT p53 is expected to bind this DNA binding site as well as to the antibody coating the test wells of the plate. Excess p53 and oligos are washed away and streptavidin-HRP is used to quantify the amount of oligos in the well, which is proportional to the DNA bound by p53. TMB assay was performed to determine HRP levels (450 nm). The results are presented as relative absorbance (at 450 nm) (Y-Axis) of each tested sample. MCF7 and the H1299-Mut-p53 (ts) A135V cells serve as positive controls for WT p53.
For these experiments, a commercial p53/DNA binding kit of “R&D” (Cat-DYC1355-5 Lot-1273366FA) was used, in accordance with manufacturer guide lines. Briefly, 96 well plates are coated with anti-p53 antibody overnight. Cell extracts containing p53 are reacted with an oligonucleotide that contains a p53 consensus binding site (provided in the kit), labeled with biotin, in the presence or absenc.
e (NT) of test peptides. WT p53 is expected to bind this DNA binding site as well as to the antibody coating the test wells of the plate. Excess p53 and oligos were washed away and streptavidin-HRP was used to quantify the amount of oligos in the well, which is proportional to the DNA bound by p53. TMB assay was performed to determine HRP (ES001-1L-K) levels (450 nm).
To measure the effect of the tested peptides on DNA binding of Mut-p53, a commercial ELISA kit, (R&D Systems DYC1355-5, Lot-1273366FA), was used as a high-throughput assay to quantify p53 activation. This kit uses a 96-well plate format. The kit was used according to manufacturer's instructions. Wells were coated with anti-p53 antibody overnight. Cell extracts containing p53 were reacted with a biotin labeled oligonucleotide containing a p53 consensus binding site (included in the kit). WT p53 is expected to bind this oligo as well as the antibody coating the wells. Excess p53 and oligo were washed away in wash buffer (0.05% Tween 20 in PBS, pH 7.2-7.4; R&D Systems, Catalog #WA126). Then, streptavidin-HRP (R&D Systems, Part 890803, provided in the kit) was added for 15-45 min to quantify the amount of oligo in the well, which is proportional to the DNA bound by p53. If the addition of a peptide to Mut-p53 extracts increases ELISA reading compared to background, this peptide is considered as functionally effective and may be selected for further analysis. […] As with the conformational screening, MCF7 and the H1299-Mut-p53 (ts) A135V cells served as positive controls for WT p53. Extracts were added to the wells coated with αp53-Ab, and after several washing steps, streptavidin-HRP was added for 1 hour, and then plates were washed again and TMB (substrate to HRP) assay was performed.

[2] = tested on: WI-38 fibroblasts overexpressing R175H p53 (WI38-175); test: Crystal violet viability assay; type: cell-based; settings: 48 hours; much more prominent than in mNoxa-i control cells
Protocol: FIGS. 13A and 13B are bar graphs illustrating the effect of various tested peptides on the viability of cells expressing Mut-p53, as determine by crystal violet assay. WI-38 fibroblasts expressing endogenous WT p53 were infected with retroviruses expressing either mouse Noxa shRNA (WI38-m-Noxa-i) as a nonspecific control or the R175H p53 mutant for stable overexpression of mutant p53 (WI38-175). The cells (WI38-m-Noxa-i or WI38-175) were seeded at 3000 cells per well in 96-well plates. Tested peptides were added to the cells. Different concentrations of etoposide (cytotoxic drug, 4′-Demethyl-epipodophyllotoxin 9-[4,6-O—(R)-ethylidene-beta-D-glucopyranoside], 4′-(dihydrogen phosphate) were used as positive control for cell death and as a standard reference curve to assess the effect of tested peptides. 48 hours after treatment, cells were washed with PBS to exclude dead cells and debris, and cells that remained attached to the plate were stained with crystal-violet for 30 minutes. Crystal violet was removed and cells were washed 4 times with PBS to remove residual crystal violet. Then, the stained cells were dissolved in 10% acetic acid and plates were taken for optical density measurement at 595 nM (optimal for crystal violet). The bar graphs of FIGS. 13A and 13B show the optical density reads at 595 nm, which reflect the number of cells in the plate after treatment, normalized to the non-treated (NT) samples.
Cells were cultured in 96 wells plates with 2500-4000 cells/well in 0.1 ml and incubated overnight at 37° C. in order to adhere to the plate. Serial dilutions of different peptides (0.5 μg/ml) were added in 0.1 ml aliquots and the plates incubated for additional 48 h at 37° C. Then medium was removed and cell lysis was determined by staining the cells with crystal violet (0.5%) in methanol/water (1:4, v/v), 50 μl each well, for 10 min, followed by 3 washes with PBS. Afterwards, 10% acetic acid (50 μl) was added to each well and shaken for 10 min. Then, automatic plate reading was performed at 595 nm.
An important indication for the reactivating peptides activity is their effect in-vivo on cancer cells that express Mut-p53. In particular, reactivating peptides that can cause specifically Mut-p53-dependent death of cancer cells, with minimal toxic effects on normal cells are desired. A crystal-violet based viability assay, in which crystal-violet is employed to stain cells that adhere to the plate and therefore the amount of dye is proportional to cell number was used to determine the effect of the various test peptides on Mut-p53-dependent death.
Cells were plated in 96-well plates, at calibrated density that allows them to grow for 48 hours without reaching confluence. Peptides are added 6 hours later. Different concentrations of etoposide (cytotoxic drug) were used as positive control for cell death and as a standard reference curve to assess the effect of tested peptides. 48 hours after treatment, cells were washed with PBS to exclude dead cells and debris, and cells that remained attached to the plate were stained with crystal-violet for 30 minutes. Crystal-violet was removed and cells were washed with PBS 4 times to eliminate remains of crystal-violet. Then, the stained cells were dissolved in 10% acetic acid and plates were taken for optical density measurement at 595 nM (specific to crystal-violet).
FIGS. 13A and 13B illustrate a representative experiment of screening performed on 128 synthesized peptides. In this experiment, WI-38 fibroblasts were used. These cells express endogenous WT p53 and were further infected with a virus expressing either mouse Noxa shRNA, as a nonspecific control or the R175H p53 mutant for stable overexpression of mutant p53. Both of these sub-lines (mNoxa or R175H p53) were seeded at 3000 cells per well and treated as described above. […]

Mut-p53 (R175H p53) [3] = molecular target: T1, Mut-p53 (R175H p53); test: Sandwich ELISA for p53 conformation (PAb1620/PAb240 reactivity); type: biochemical; settings: extract of H1299 cells overexpressing R175H p53; peptide 50 ng/ml, 2 hours
Protocol: To measure the conformational effect of the peptides on Mut-p53, a micro-titer plate was coated with either PAb240, PAb1620 or pAb421 (as a positive control and standard for total p53 protein, since the antibody used recognizes both WT and mutant conformations), overnight incubated, washed, blocked, and cell extracts (with or without peptides) were added for an additional 2 hours. After removal of extracts, plates were washed and incubated with the αp53-HRP conjugated Ab for the detection of p53 levels. A TMB (substrate of HRP) assay was performed and optical density was determined at 450 nm. WT p53 served as a positive control for reactivity with PAb1620, and Mut-p53 served as a negative control. The results are presented as the ratio of absorbance between the PAb1620 or PAb240 samples and the control […] sample. MCF7 and H1299-Mut-p53 (ts) A135V (TS) cells were used as positive controls for the WT p53 conformation (1620/240 ratio equals or exceeds 5:1).
96-well plates were coated using 3 different antibodies (1 type of antibody (Ab) in each well): PAb421 recognizes both conformations of p53 and binds to a C-terminus epitope; PAb240 recognizes mutant conformation of p53, binds to epitope within the core domain (amino acids 212-217) (Stephen, C. W. and D. P. Lane, Mutant conformation of p53. Precise epitope mapping using a filamentous phage epitope library. J. Mol. Biol., 1992. 225(3): p. 577-83) which is accessible to the Ab when the protein is partially denatured (for example, when the DBD is mutated); and PAb1620, which recognizes WT conformation of p53, binds to epitope with in the core domain (aa 156, 206-210), formed when folding is in WT conformation (Wang, P. L., F. Salt, and G. Winter, The ‘wild type’ conformation of p53: epitope mapping using hybrid proteins. Oncogene, 2001. 20(18): p. 2318-24).
Wells were incubated overnight (ON) with 100 μl Ab (5 μg/ml) in room temp (RT). The liquid was discarded, and the wells were washed 3 times with Phosphate buffered saline (PBS), 200 μl per each wash. Next, blocking with 200 μl of 5% bovine serum albumin (BSA) diluted in PBS in each well for 1.5 hours at room temperature (RT) was performed. Blocking buffer was discarded, followed by 3 washes in PBS as described above. Samples of mutant and WT p53 proteins (100 μl, 10 μg/ml), together with control peptides pCAP-710 (LPNPPER, SEQ ID NO:328) and pCAP-1220 ([…], SEQ ID NO:368) (5 μg/ml, Sigma Aldrich, or with test peptides 1-153 (5 μg/ml), were incubated for 1.5 hours together, and then added to the wells. Samples were rotated and incubated for 1 hour at RT. Samples were discarded, following 4 washes as described above, using Trisphosphate buffered saline (TPBS). Next, horseradish peroxidase (HRP) conjugated streptavidin p53 antibody (10 μg/ml HAF1355 (R&D)) was added to the wells and incubated at RT for 1 hour. After the plate was washed 3 times in TPBS, TMB substrate solution (50 μl each well, Thermo, (Cat. No. ES001-1L-K)) was added and incubated at 37° c. for 20 min. The reaction was stopped with 2M sulfuric acid (50 μl). The absorbance was measured at 450 nm with a spectrophotometer. Protein concentration was determined by dividing the absorbencies of each sample to the absorbance of Ab 421 samples.
The first screening strategy was based on ELISA. A version of sandwich ELISA was used to examine the effect of the lead test peptides on p53 conformation. To measure the conformational effect of the peptides on Mut-p53, a micro-titer plate was coated with PAb240, PAb1620 or pAb421 (as a positive control), and then the reactivity of p53 to these antibodies was examined. WT p53 served as a positive control for reactivity with PAb1620, and Mut-p53 served as a negative control. To examine the effect of a tested peptide it was added to a solution containing Mut-p53 and change in reactivity to either Ab was tested. […] Several ELISA experiments using different cell extracts were performed. […]

| Sequence | binding of H1299-R175H p53 extracts to p53-RE DNA (Mut-p53 (R175H p53) [1]) | reduction in cell numbers, R175H p53 expressing WI-38 cells [2] | reactivity of R175H Mut-p53 towards PAb1620 and PAb240 (conformational change) (Mut-p53 (R175H p53) [3]) |
| --- | --- | --- | --- |
| HSSHHHPVHSWN [pCAP-83] | elevate the binding of H1299-R175H p53 extracts to p53-RE DNA | – | – |
| TLYLPHWHRH [pCAP-47] | – | significant reduction in cell numbers | increased reactivity of R175H Mut-p53 towards PAb1620 and decreased reactivity towards PAb240 |
| SFILFIRRGRLG [pCAP-60] | – | significant reduction in cell numbers | increased reactivity of R175H Mut-p53 towards PAb1620 and decreased reactivity towards PAb240 |
| YPTQGHLR [pCAP-36] | – | significant reduction in cell numbers | increased reactivity of R175H Mut-p53 towards PAb1620 and decreased reactivity towards PAb240 |
| ATQHHYIK [pCAP-93] | elevate the binding of H1299-R175H p53 extracts to p53-RE DNA | – | – |
| WNHHHSTPHPAH [pCAP-97] | elevate the binding of H1299-R175H p53 extracts to p53-RE DNA | significant reduction in cell numbers | – |
